Test results from paper PMC4370734.
Where “and” joins values, the source holds several entries; their conditions need not be identical. Equal entries are not always repeated. Values belong to the substance of their own block, whether it stands above or below them.

Experiments:
Assay in all cases: AUC; sedimentation velocity, 0.3 mg/mL, 20 mM Tris/HCl, 500 mM sodium chloride, 5 mM DTT, 0.4% CHAPS, pH 8.0, 42,000 rpm, 20°C; c(S) analysis with Sedfit; monomer, dimer, trimer and higher species
P42858 = tested on: P42858
[1] = target: human full-length mutant Htt with 128Qs, C-terminally fused with a FLAG-His (FH) affinity tag (human) (UniProt P42858)
[2] = target: human full-length normal Htt with 17Qs, C-terminally fused with a FLAG-His affinity tag (human) (UniProt P42858)

Substance: human full-length mutant Htt with 128Qs, C-terminally fused with a FLAG-His (FH) affinity tag
fraction of aggregates (P42858): also of aggregates (23.6% versus 9.9%)

fraction of dimer [1]: 20% | fraction of monomer [1]: 35.6% | fraction of trimer [1]: 17.3% | stoichiometry N [1]: 2 and 3
Substance: human full-length mutant Htt with 128Qs, C-terminally fused with a FLAG-His (FH) affinity tag, P42858 1-3142

Substance: human full-length normal Htt with 17Qs, C-terminally fused with a FLAG-His affinity tag
fraction of aggregates (P42858): also of aggregates (23.6% versus 9.9%)

fraction of dimer [2]: 20% | fraction of monomer [2]: 52.1% | fraction of trimer [2]: 8.8% | stoichiometry N [2]: 2 and 3
Substance: human full-length normal Htt with 17Qs, C-terminally fused with a FLAG-His affinity tag, P42858 1-3142
